These results are taken from patent publication US20180086837A1 (Ablynx, published 2018).

One may read the IC50 as the concentration at which inhibition is half-maximal.

Assay [1] has as its target T1, human CXCR4 (human, UniProt P61073 1-352). The assay can be described thus: cell-based or functional assay.
Assay [2] deals with T1, human CXCR4. Description: cell-based or functional assay. This is another data set of the same source.
Assay [3] has as its target T1, human CXCR4. The assay can be described thus: inhibition of 12G5 binding, Jurkat cells; 12G5 inhibition on Jurkat cells; potency ratio to monovalent 281F12.
Assay [4] addresses T1, human CXCR4. Description: inhibition of 12G5 (competitor, 10 nM PE-labelled) binding, Jurkat cells; 12G5 mAb binding inhibition on Jurkat cells (CD4 low).
The target in assay [5] is T1, human CXCR4. The assay can be described thus: SDF-1^AF647 displacement, SUPT-1 cells, flow cytometry, n = 3; SDF-1^AF647 displacement on SUPT-1 cells (CXCR4 and CD4 co-expressed). For orientation: A flow cytometer gives signals particle by particle.
The target in assay [6] is T1, human CXCR4. Description: inhibition of 12G5 (competitor, 10 nM PE-labelled) binding, SUPT-1 cells; 12G5 mAb binding inhibition on SUPT-1 cells (CXCR4 and CD4 co-expressed).
Assay [7] concerns the target T2, hCXCR4-V196E (human, UniProt P61073 1-352).
T2 construct: whole, on cells
The assay can be described thus: flow cytometry, transfected HEK293T cells, 10 nM, normalised to 12G5.

Assay [8] concerns the target T3, cynomolgus CXCR4 (cynomolgus, UniProt Q28474 1-352).
T3 construct: whole, on cells; also called cyno CXCR4
The description is as above.

Assay [9] has as its target T2, hCXCR4-V196E. Description: flow cytometry, transfected HEK293T cells, 100 nM, normalised to 12G5.
The target of assay [10] is T3, cynomolgus CXCR4. Described as above.
Assay [11] addresses T1, human CXCR4. The assay can be described thus: competition FACS on Hek-CXCR4 cells; competitor: 30 nM biotinylated SDF-1.

T1 sequence (P61073 whole entry): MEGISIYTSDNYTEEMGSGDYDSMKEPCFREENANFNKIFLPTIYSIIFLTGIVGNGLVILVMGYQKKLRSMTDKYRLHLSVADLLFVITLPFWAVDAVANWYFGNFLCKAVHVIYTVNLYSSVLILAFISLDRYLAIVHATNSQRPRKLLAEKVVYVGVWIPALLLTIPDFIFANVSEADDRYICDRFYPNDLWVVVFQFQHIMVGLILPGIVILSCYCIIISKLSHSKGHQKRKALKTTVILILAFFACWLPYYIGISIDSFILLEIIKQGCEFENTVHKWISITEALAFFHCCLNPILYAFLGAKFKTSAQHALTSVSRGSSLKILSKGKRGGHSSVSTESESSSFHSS
T3 sequence (Q28474 whole entry): as the sequence (P61073 whole entry) above, with M24I, N35H, K38R, R146K, N176S counted along it
T2 sequence (P61073 whole entry V196E): as the sequence (P61073 whole entry) above, with V196E counted along it

B1: 03F11-35GS-281F12 (bispecific antibody)
chain: EVQLVESGGGSVQPGGSLTLSCGTSGRTFNVMGWFRQAPGKEREFVAAVRWSSTGIYYTQYADSVKSRFTISRDNAKNTVYLEMNSLKPEDTAVYYCAADTYNSNPARWDGYDFRGQGTQVTVSSGGGGSGGGGSGGGGSGGGGSGGGGSGGGGSGGGGSEVQLVESGGGLVQAGDSLRLSCAASGRAFSRYAMGWFRQAPGKEREFVAAIGWGPSKTNYADSVKGRFTISRDNAKNTVYLQMNTLKPEDTAVYSCAAKFVNTDSTWSRSEMYTYWGQGTQVTVSS
notes: Bispecific Nanobody construct, CD4 arm N-terminal; also called CD4-35GS-CXCR4; 3F11-281F12; not shown: C-terminal c-myc-His6 tag (E. coli) or FLAG3-His6 tag (Pichia)
On to B1, for which, in the assay with human CXCR4 [1], the “IC50, inhibition of SDF-1a-mediated chemotaxis, Jurkat E6-1 cells” value came out at 460 nM; the “IC50, inhibition of SDF-1a-mediated chemotaxis, MOLM-13 cells” value was 1.29 nM; the “Ratio to 281F12 (fold increase in potency), chemotaxis, Jurkat E6-1 cells” value stood at 0.2 fold; the “Ratio to 281F12 (fold increase in potency), chemotaxis, MOLM-13 cells” value was found to be 67 fold. In the assay with human CXCR4 [2], the “IC50, SDF-1 induced Ca2+ signaling, U87-CD4-CXCR4 cells” value worked out at 3.43 nM. In addition, the “fold loss of potency compared to monovalent CXCR4 Nanobody construct” value with human CXCR4 [3] came to 50 fold. The molecule also showed an IC50 with human CXCR4 [4] of 631 nM. Besides, the IC50 with human CXCR4 [5] turned out to be 1.5 nM. Besides, in the assay with human CXCR4 [6], the IC50 amounted to 56.6 nM.

B2: Nanobody 10C3 (VHH)
VHH: EVQLVESGGGLVQPGGSLRLSCAASGTIFSTSTMGWYSQAPGKQRELVADITFLGSAKYADSVKGRFTISRDKIKNTVYLQMNSLKPEDTAAYYCNARQSTFRGVHYNYWGQGTQVTVSS
notes: also called 10C03
Regarding B2, the “% binding relative to hCXCR4” value with hCXCR4-V196E [7] came out at 0.4%; in the assay with cynomolgus CXCR4 [8], 57.5%; in the assay with hCXCR4-V196E [9] it was 0.6%; with cynomolgus CXCR4 [10] it was 51.3%. Besides, in the assay with human CXCR4 [11], the “IC50 (read off the curve)” value was approximately 30 nM.
